Source: the DeepSol protein solubility set

assay: soluble on expression in E. coli; label from the status in PepcDB or PDB records

Sequence | soluble on expression in E. coli
MSLCCISFRVGTGPCVTSGADRLTKGPLRKSAPVSQPEANPKSRSFSGNFLNHTFRRENPMSEITSLVTAEAVKDVLRSEEVRSALKQKLRHNLEARLDAEVDAILDELLGVQAEPPTEAGDTTAESGEVQPESPVADATEPQPESVMMLEGHHHHHH | soluble
MSASAETVAPEGYRKLLDVQIFKDSPVVGWSGSGMGELETIGDTLPVDTTVTYNGLPTLRLNVQTTVQSGWWISLLTLRGWNTHDLSQYVENGYLEFDIKGKEGGEDFVIGFRDKVYERVYGLEIDVTTVISNYVTVTTDWQHVKIPLRDLMKINNGFDPSSVTCLVFSKRYADPFTVWFSDIKITSEDNEKSAPAIKLEHHHHHH | soluble
RAETAVQRTEDRYHNLVDTAPIPILLFDRDWKALYANEAAIAFLDADSFTEIAGKKASDFLHPDERDAARKRFQRLMREGVSVPEREYRVMTAEGEVKTATIATAPGYYRGEQVAQAMV | not soluble
MVSYQILLLLVSILPLTYSIRTSKWHFSGKLLCPLYTFKYHLEVFEEDYFRKTDDLLTNQTEVSSISPHLYKVDAEETDDGLDFGRHFEIYMLIIHDCNPDRYVKSLKVDWGKYHIDIEFVTFYALKFEIFSEVSEVKDIDVFGKGSAL | not soluble
MGSDKIHHHHHHMAIACVMTRASCGVQAPKVIVEVHLSNGLPGFSLVGLPEASVKEAKERVRSALINAGFEFPMQRITVNLAPADLPKQGGRYDLPIAIGILAASEQIPKKAIADAEFVGELALTGQVRPCVGLLPAIIAARDDGHPMFMPLDNRHEAELVGYQQCHFVADLQHLAAFIHGQGQLPKVDNQTQWITESAVDPKLCLSDVIGQYQAKQGLEIAAAGGHNLLLMGPPGTGKSMLASRIIPLLPNLSYQEAIEVAAIHSVAGLNTPSHNFLQRPFRSPHHTCSAISLVGGGSVPKPGEISLAHRGILFLDELPEFPRRVLDCLREPMETGEVVISRAAAKLTFASRFQLIAAMNPSPCGNVDKARSTPDQIQRYLSRLSGPFLDRFDLTVDVPKLPSGALSQANIQAETSISVAARVRKAREKQLERSGVLNNELSPKALKKVANLDQANLIFLEQSVQLLGLSVRSFHKIQRVACTIADLQEEAKVDRAHLAQALGYRAMDRLIARLRQQ | not soluble
MKATTVKENEVKDDRKLSLNEMLRKRCLQVKNTKMKNSSMPKFQYFVRLNGKTRTLNVNASDTVEQGKMQLCHNARSTRMSYGGKPLSDQITFGEYNISNNSTMDLHFRI | not soluble
PRAAARGGGGDAGTRGRGFVQAGRGAPMAECGRGGAAGGALPTSPGPALGAKGALKAGVGEGGGGGGRLGHGRARYDSGGVSNGDCSLGVSGDEARASPTRGPRGVALAPTPSAVVCTLPRESKPGGLPRRSSIIKDGTKQKRERKKTVSFSSMPTEKKISSASDCINSMVEGSELKKVRSNSRIYHRYFLLDADMQSLRWEPSKKDSEKAKIDIKSIKEVRTGKNTDIFRSNGISDQISEDCAFSVIYGENYESLDLVANSADVANIWVTGLRYLISYGKHTLDMLESSQDNMRTSWVSQMFSEIDVDNLGHITLCNAVQCIRNLNPGLKTSKIELKFKELHKSKDKAGTEVTKEEFIEVFHELCTRPEIYFLLVQFSSNKEFLDTKDLMMFLEAEQGVAHINEEISLEIIHKYEPSKEGQEKGWLSIDGFTNYLMSPDCYIFDPEHKKVCQDMKQPLSHYFINSSHNTYLIEDQFRGPSDITGYIRALKMGCRSVELDVWDGPDNEPVIYTGHTMTSQIVFRSVIDIINKYAFFASEYPLILCLENHCSIKQQKVMVQHMKKLLGDKLYTTSPNVEESYLPSPDVLKGKILIKAKKLSSNCSGVEGDVTDEDEGAEMSQRMGKENMEQPNNVPVKRFQLCKELSELVSICKSVQFKEFQVSFQVQKYWEVCSFNEVLASKYANENPGDFVNYNKRFLARVFPSPMRIDSSNMNPQDFWKCGCQIVAMNFQTPGLMMDLNIGWFRQNGNCGYVLRPAIMREEVSFFSANTKDSVPGVSPQLLHIKIISGQNFPKPKGSGAKGDVVDPYVYVEIHGIPADCAEQRTKTVHQNGDAPIFDESFEFQINLPELAMVRFVVLDDDYIGDEFIGQYTIPFECLQTGYRHVPLQSLTGEVLAHASLFVHVAITNRRGGGKPHKRGLSVRKGKKSREYASLRTLWIKTVDEVFKNAQPPIRDATDLRENMQNAVVSFKELCGLSSVANLMQCMLAVSPRFLGPDNTPLVVLNLSEQYPTMELQGIVPEVLKKIVTTYDMMIQSLKALIENADAVYEKIVHCQKAAMEFHEHLHSIGTKEGLKERKLQKAVESFTWNITILKGQADLLKYAKNETLENLKQIHFAAVSCGLNKPGTENADVQKPRRSLEVIPEKANDETGE | soluble
MDNLNVFANEDNQVNDVKPPPPPPRVCARCDSDNTKFCYYNNYCEFQPRYFCKNCRRYWTHGGALRNIPIGGSSRAKRARVNQPSVARMVSVETQRGNNQPFSNVQENVHLVGSFGASSSSSVGAVGNLFGSLYDIHGGMVTNLHPTRTVRPNHRLAFHDGSFEQDYYDVGSDNLLVNQQVGGYGYHMNPVDQFKWNQSFNNTMNMNYNNDSTSGSSRGSDMNVNHDNKKIRYRNSVIMHPCHLEKDGP | not soluble
MAHHHHHHMAEEGSGLHQFWNTQPVPQSSIDAADTVGPLEAAGTVDDVPTDPVAIASTLEWWSPDMDNKDDVRAIYELLRDNYVEDVESMFRFNYSEDFLRWALTPPGYHSSWHVAVRRKRDQMLMGFVSGIPVTMRMGAPKKVLQKNKTTEEKEQGPEEKNNDHKSQAEELYLEPRKICEINFLCVHKLLRAKRLAPILIKEVTRRVHLMNIWQAVYTAGRLLPTPFATADYYHRSLNPEKLVAVGFSAIPQQYQKFQNPLSMIKRFYELPAKPKTRGLRPMEPKDAPQVANLLRKKLATCDVAPVFTDEEVAHYTLPREGVLMSYVVEREVSGGGGGGRVDSSRGKQNDAGTQKQITDFFSFFSLPSSIIGSSKHSVLNAAYVFYSANTTISLVHLMSDLLIVAHQQGFDVCNVVNIMDNGDYLSELKFGRGDGNLHYYFYNWSYPIVQPSDVGLFML | not soluble
MSLSEENVKLAEELIRKGYNEKKIRSLLKLPDEEFKLALEVARARIKAKDKFSRSDLWFDLEGLRYATHEVVADYRGRRLKGQGVKSIADVSCGVGIQLIFFAKHGIRSVGIDIDPIKIEFAKRNAEKYGVEVEWVVGDALSPEIIEKVDAEVIFSDPARPPEVPERNLEDLLPSPLKIYEAYKHKTDSFIFDLPPQIRREKVPWKGEFEYIDLFGHVNRLTFYTEPLAKAERSAVILPQGARLESNPDLENIVEETMEPERYIYEIPQSIDYADLINELFHKVNGELKLLLREKRRILATSNDEVKSEYFKRSYIVVKVMPFHPVRINDFLRREGYGRATLRMSVDEKEYWRIRKKIESGLSGDKRAFVFKVRDLAVIAEEIPQAEGHHHHHH | soluble
MGSDKIHHHHHHMSQLLYDNGTHKCIAFTDLVEGEGIQANQFLIVNNGEGMLLDPGGNLTYKNLLAEMASYFLPAHLDYVFASHEDPDIVASANGWLLITDAKILIANEWTRFLPHFCSKGMTAGRVIGIPAQGMRVNLAGQELFVVPAHYMHSVGNFQVYDPVSKILFSGDLGANLVSGHDAAKVIEGAEAFAAHRAATSMDGFHRRYMGGQKVCRLWTNMARGMDIEWIVPQHGASFKGRETVLAFLDWFEGLESGPDLLTQKDFQFPIPENL | not soluble
MTTPNPLAKTKGAGTTFWMYTGNGDAFANPLSDTDWLRLAMVKDLQPGEMTADAEDDTYLDDEDADWKTTTQGQKSVGDTSATLACRPGDSGQKKLVQLFDSGEVCAFRIKYPNGTVDVFRGWLSSLGKTIASKDVMTRTVKISGVGRPYLAEEGTETVGVTGLTVAPASVSVKAGATTTLTFTVKPDGASDKAISVHSSDPQTASVTLSGLVATVKGVKQGSVSIVGMTSDGEFVAVAAVTVSAP | not soluble
MSAVNRAAVEAVLRQYTDPYLNQDPVSAGCVRDIEVQGDRVTVRMELGYAAGLFKSGWAQMLQLAIEGLDGVSSAKVEISSVIAAHKAQAQIPGLANVKNVVAVASGKGGVGKSTTAANLALALAREGAKVGILDADIYGPSQGIMFGIAEGTRPKIKDQKWFVPIESHGVEVMSMAFLTDDNTPMVWRGPMVSGALLQLVTQTDWGNLDYLVIDMPPGTGDIQLTLAQKVPVAGAVIVTTPQDLALLDARKGVEMFRKVNIPVLGVVENMAVHICSNCGHAEHLFGEGGGEKLASQYDVELLASLPLSMLIREQADGGKPTVIAEPESQIAMVYQELARHVGARIVLQEAAAPAMPNITISDDLEHHHHHH | not soluble
MGSDKIHHHHHHMHVDIELPLGRATALQRLRAQGFCVLTPAALETLTGMPLDAFDMMLPYWEELAPDLHLKDGGHYRYRRHGCFMQTLQPGQLETVQHRAHWQPTTYNALHGGMERWFEPLSNEMIHLPSWSALLVALGELFAKLRAPQGGRWYIEAHPFRIDTEGGVGRPTPEGAHRDGVDFVAVVFIGRQGVRGGETRVFDAAGPQGVRFTLEQPWTVLLLDDQQVIHESTPLLPLDPADPAVPAHRDTLVLTYRSGGFQAPA | not soluble
MGSDKIHHHHHHMADNVKANKMNSQADDDIGFGIYTDIADLPMTGCPSYIEEGIGGVCESGTATIVVFDVPFQIVPNVVITLMPWQLVFIKEISEDFRITFFKISKDMFSETLSTLWRPASGFLLYMRKHIVSIPDGELIGRFLAYCNLLVYRMKHTPQNCRQESIMQLLRVYFWDVYTVYINDPQAEKSLKFTRKDEYVYQFVRLIIEDHSPDKDVAYFAQKLGISPKRLTNLIRSISGQSAREWIVYYTILEIKSLLRESSLDIKSIAARVNFPDQTTLSRYFRHYTGVTPSQYRKNIYF | not soluble
GPGSMSNAVSGVIDARWMRFLRECKQRELVAEIEVLRRTFEATLDRKKGFSTTLLEELSVAEEQCRHAFRSHMDVVSSLLQLHAARTKDLEADLDANVAEMQQDFEYERAELELKHMIEMDDLRLILDNMAAEAEMLEKKLQEETSEGHETAAEKMDEAMREMEADLNKVEDGLRGELDSRYKKFMSAAQANMKEYTAKCKEDQETTERIAAQLRKIEKLQSSVSSWRTNIARNAKEWEDRNAAIQAERDATLSHLKKLKDKMQRWRELQSKALVELVKEANATEEALQATSKRAVRLLRLVELCKPMETEREQVLLHEANISSAAVEAETKRRVAAESSGNAQDDVLRGGDAAPAANEQWLSLDRFWVKHNKVVLDNAALTQERFLLEEENRVLQEVLKQYLDDVSISDQVMRQSNTLLLTQGANYNVVQAANASDNSVVRGYNVIEGNKFVNDQSRQAISH | not soluble
MSLIKQEHMHPPPRAITPLPPATHQITLEEYKEREKKDYYRDATKDASVKKVVLSLLKDHPGMWQNGNRFQPEKWRALGVDVYQRTGQIVRVNDMRKMLVMGKSVLKKKIAICIRDKKLDRAATEKDLWYWEYYRHFLYYRETLGQFEANLRGEEWTGEDQIQDEDDIIYDGMLDGDLSNSSHNFAGHGADDDYQVEEVQYSEAGFRRPESVRGGDSYFGHGPPPQMVMGSSASNFSSATQSHSRNRKSSSIDHTEVDRSAQHIAEQAKRLFLQYPEKSNLIRETMFKTILAFDDPSADYQNVGEIFDDLAAQEAAKKRKRAENRAQREQQ | not soluble
MGSDKIHHHHHHMTSLKQQLLDVKGGRNFRELGGYQTVSGKKIKMHKLIRSGHLADLLKEDQEYLRRYGLKYDIDLRTSFERNKQPDRKISGVEYFADPVFDEDLTNSTMSISDMARESQDPGWGYQRMLWAYKNMATGKNANKAYQHLFEVLLANEKDSESVLFHCTAGKDRTGFGAILILTALGVPMKTIEKDYLFTNEVIKDFVSQLLAKEKAAGADDSLLATFRDLQTVQPAYFKYLLDVINRNYGSINAYLHQQIGLSNADLLDLRTIYLEK | not soluble
